Results as given in the supplement of paper PMC12042874.
± gives the uncertainty stated by the source.

Assay: amyloid nucleation score (Sup35N fusion, yeast selection) (log enrichment); library NNK1; higher = more nucleation; inactive = no reads after selection
Outline: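 Nucleation score is defined as the DiMSum log enrichment of output over input reads, with centring on the mode score of non-aggregating sequences. A minimum of 100 input reads was required for each sequence. Reads came from Illumina sequencing of plasmid inserts from psi-negative yeast expressing Sup35N fused to peptides of 20 random codons, induced with 100 μM copper sulfate for 24 hours and grown 7 days at 30°C on medium lacking adenine and uracil.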
In the case of CQIFGNFWWKCIVGCRQIRF, the amyloid nucleation score is reported as “inactive”.
For CQYRTTYSASFLNRS, the amyloid nucleation score was “inactive”.
With CQYVCRDNFDYQTSSSCGCD the amyloid nucleation score was “inactive”.
In the case of CRKFQWLSLM, the amyloid nucleation score is reported as -0.921 ± 1.7.
With CRLCVLCAMYGI the amyloid nucleation score was 0.939 ± 0.26.
With CRMRMLRKYVFLD the amyloid nucleation score was -0.427 ± 0.61.
With CRPVGRRYKWFTFSGGLLLR the amyloid nucleation score was 1.14 ± 0.9.
CRSSSERSIFG showed an amyloid nucleation score of 0.439 ± 0.53.
Substance CSAMPAFWAGHRSGASLHER has an amyloid nucleation score of 0.017 ± 0.4.
Substance CSAYDQVWDTNGRVCFA has an amyloid nucleation score of -0.003 ± 0.41.
Work on CSCINSHLWSTSG yielded an amyloid nucleation score of 0.386 ± 0.32.
CSDRCTTYCLFSLSDRKRIL gave an amyloid nucleation score of -0.317 ± 0.25.
CSEISCPLTKHRCGTLVRVL showed an amyloid nucleation score of -0.761 ± 1.2.
Work on CSGSTRVKHFHRFFTNWLLM yielded an amyloid nucleation score of 0.323 ± 0.63.
With CSKVVSSVLVQL the amyloid nucleation score was -0.322 ± 0.45.
With CSLIIFAYRRLEFMILFYFD the amyloid nucleation score was -0.26 ± 0.49.
In the case of CSLVLAIRHATCQEVVVGSC, the amyloid nucleation score is reported as 0.602 ± 0.6.
Substance CSREYDVVGLA has an amyloid nucleation score of 0.401 ± 0.28.
In the case of CSSHDQFSAR, the amyloid nucleation score is reported as -0.214 ± 0.77.
With CSYCVAENQFMEFRGFMRGP the amyloid nucleation score was 0.234 ± 0.34.
CTKCYPGVLYYFDCSGPGTR gave an amyloid nucleation score of -0.51 ± 0.65.
For CTWWSMWNNNWDKFLTREQL, the amyloid nucleation score was 0.19 ± 1.1.
In the case of CTWYKFDIGWAEGLGYRDYP, the amyloid nucleation score is reported as 0.282 ± 1.2.
CVHLSKRCKLPVKIISLCLN showed an amyloid nucleation score of 0.767 ± 1.
With CVHTSVDDGRNYVKNLNDAR the amyloid nucleation score was “inactive”.
CVIKHSLRCFAIIGLSHRGG gave an amyloid nucleation score of -0.255 ± 0.97.
CVKAD gave an amyloid nucleation score of -0.354 ± 0.54.
In the case of CVKSYK, the amyloid nucleation score is reported as 0.48 ± 0.66.
For CVLFESQ, the amyloid nucleation score was -0.188 ± 0.44.
Work on CVMVVSF yielded an amyloid nucleation score of 0.934 ± 0.42.
For CVTLTCLLSSIV, the amyloid nucleation score was 1.84 ± 0.12.
Work on CVWMVETRQWREGFKCMPER yielded an amyloid nucleation score of 0.532 ± 0.97.
CVWVKGHSRCLTTSLVRRSR gave an amyloid nucleation score of -0.022 ± 0.42.
CWDFISCSGQVVNGWSKDSS showed an amyloid nucleation score of -0.008 ± 0.42.
For CWFANRSLPVQIPRVW, the amyloid nucleation score was -0.394 ± 0.48.
CWIFQDCCQKDCMLFLPCCK gave an amyloid nucleation score of 0.554 ± 0.26.
CWLRIGSSFRRARSGWTCDS gave an amyloid nucleation score of -0.834 ± 0.91.
With CWVETLTICACLTFTFFFWN the amyloid nucleation score was 2.48 ± 0.14.
With CWYWDSPSVGFTAILYYLAG the amyloid nucleation score was 0.138 ± 0.57.
For CYASKMFWVVF, the amyloid nucleation score was 2.06 ± 0.27.
In the case of CYLLSRGYWSDMLGKWARGV, the amyloid nucleation score is reported as 0.131 ± 0.54.
With CYNNF the amyloid nucleation score was “inactive”.
Substance CYVVKVLFRPIY has an amyloid nucleation score of 1.01 ± 0.97.
With DACMTGSTLTGYLSTDVGLI the amyloid nucleation score was “inactive”.
DAGRWSYPGRCPNMWLRLLM gave an amyloid nucleation score of -0.461 ± 0.68.
With DARFLSWNANMID the amyloid nucleation score was 0.31 ± 0.19.
With DAWEDGSKMYESLGV the amyloid nucleation score was -1.01 ± 0.56.
In the case of DCCISVSHSGRAALYVKVEI, the amyloid nucleation score is reported as 0.022 ± 0.46.
Substance DCDYGCLKLSEEFGSVSSFR has an amyloid nucleation score of 0.165 ± 1.4.
DCFLCLKVLGMSAVLREWYL gave an amyloid nucleation score of -1.17 ± 0.94.
Substance DCGDSKRYVRITMFYFNRII has an amyloid nucleation score of -0.262 ± 0.34.
DCMFYVDRTGRSIGVVSIVE gave an amyloid nucleation score of -0.021 ± 0.28.
DCNPSWIPFLVCHRIYACWR showed an amyloid nucleation score of 1.41 ± 0.64.
Substance DDLACRSQ has an amyloid nucleation score of 0.614 ± 0.27.
In the case of DDVYSRYVNEGLGWCFIVYL, the amyloid nucleation score is reported as “inactive”.
DELGAMMRIFSFSCNP showed an amyloid nucleation score of -0.147 ± 1.1.
Work on DENDSGYELYFLGAGHTGSY yielded an amyloid nucleation score of -0.157 ± 0.39.
DEPMSDLALVFMYYTVYPGG gave an amyloid nucleation score of 0.638 ± 0.55.
With DESFCVVLFFFLCCLWFCHL the amyloid nucleation score was 0.184 ± 0.7.
With DEVIF the amyloid nucleation score was 0.421 ± 0.52.
Work on DEWLDPEASERRRGPGDWAL yielded an amyloid nucleation score of 0.55 ± 0.74.
Substance DFASVEFWLIALPSQMCWFF has an amyloid nucleation score of 0.056 ± 0.76.
DFGLYLNNFCNGMHSFDLFN gave an amyloid nucleation score of -0.378 ± 0.19.
With DFIKTTQSFQYQRAD the amyloid nucleation score was -0.717 ± 0.26.
With DFMALI the amyloid nucleation score was -0.013 ± 0.25.
Work on DFNYPDSSCLGFKCLNAHWV yielded an amyloid nucleation score of -0.731 ± 0.33.
DFSRWIFMTHY showed an amyloid nucleation score of -1.06 ± 0.99.
For DFSYYLWGMSV, the amyloid nucleation score was -0.991 ± 2.4.
Substance DGDSLGCYWDASLARQCFGR has an amyloid nucleation score of -0.086 ± 0.29.
Work on DGLSFLMEHLCVNTLCKGSR yielded an amyloid nucleation score of -0.075 ± 0.34.
DGTSPRQLKCMLKFLFDVWD showed an amyloid nucleation score of 2.94 ± 0.2.
Work on DGVVCMNAVCFQTMYVMYWL yielded an amyloid nucleation score of 6.69 ± 0.08.
DHGGVVPSNPGYNMARSLRF gave an amyloid nucleation score of 0.465 ± 0.46.
With DHMRYSTRRWQYPTSVVLSG the amyloid nucleation score was 0.543 ± 0.25.
DHTHLTTQNDICLMVSFTVE gave an amyloid nucleation score of 2.7 ± 0.096.
With DIFYLCFRVYSEVGLSINVV the amyloid nucleation score was -0.529 ± 0.84.
DIIIWSSSRHYNVNCKSNSA gave an amyloid nucleation score of 0.55 ± 0.18.
DIMKSSKAHELVQSLPIEKR showed an amyloid nucleation score of 0.248 ± 0.64.
Work on DINFNDGICGIKLYCYCISN yielded an amyloid nucleation score of -0.713 ± 1.7.
With DIRVLTPLRITFHLKAQGLL the amyloid nucleation score was -0.266 ± 1.4.
With DIRWGVSFIKGNFHTEL the amyloid nucleation score was “inactive”.
In the case of DIVHGGYRLWTCKFGDVRYC, the amyloid nucleation score is reported as -0.162 ± 0.32.
Work on DKEYWSVSSVRYTTENGWI yielded an amyloid nucleation score of 1.07 ± 0.47.
With DLCPSGGVSDLCNPYGCFTL the amyloid nucleation score was -0.427 ± 0.71.
Work on DLDVFYCWGAYLAEGDLVCE yielded an amyloid nucleation score of 0.146 ± 0.41.
